Tested on: MS2 coat protein
Test: apparent KD of MS2 coat protein; higher = weaker reporter binding
Conditions: Eterna round: R107
Procedure: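 RNA-MaP round R107: designed RNA switches with theophylline, tryptophan, arginine or FMN aptamers are transcribed on-chip within common flanks. They are titrated with SNAP-549-labelled MS2 coat protein in RNA-MaP buffer (100 mM Tris pH 7.5, 80 mM KCl, 4 mM MgCl2), without ligand or with the indicated ligand. Median apparent KD per design.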

[1] = input ligand: theophylline 20 uM
[2] = input ligand: theophylline 2 mM
[3] = input ligand: tryptophan 2.4 mM

Sequence: AAAAUCCUAUCUGAGGAUCACCCAGGUGAAGGAGCGCCCGAAAGGGCAGGUAGGUCGCACCUGAGGAUCACCCUGGUAAACCUAA [ArgEX 21 #DoubleMS2 #OpenEnded]
- apparent KD of MS2 coat protein (input ligand: arginine 13.2 mM): 68.8 nM
- apparent KD of MS2 coat protein (input ligand: none): 76.7 nM
- apparent KD of MS2 coat protein [1]: 76.3 nM
- apparent KD of MS2 coat protein [2]: 90.6 nM
- apparent KD of MS2 coat protein [3]: 65.4 nM

Sequence: AAAAUCCUCCAUGAGGAUCACCCAUGGGAAGGAGCGCCCGAAAGGGCAGGUAGGUCGCCCAUGAGGAUCACCCAUGGAACCUAAA [ArgAX 26 #DoubleMS2 #OpenEnded #AlternativeMS2]
- apparent KD of MS2 coat protein (input ligand: arginine 13.2 mM): 43.7 nM
- apparent KD of MS2 coat protein (input ligand: none): 56.5 nM
- apparent KD of MS2 coat protein [1]: 112 nM
- apparent KD of MS2 coat protein [2]: 118 nM
- apparent KD of MS2 coat protein [3]: 43.5 nM

Sequence: AAACAACAUGAGGAUCACCCAUGUACCGAUACCAGCCAAAUAUAAGGCCCUUGGCAGCGGAGUAAAUCCGGAGGACAAUGGGUAA [Same State Theophylline A GF5]
- apparent KD of MS2 coat protein (input ligand: arginine 13.2 mM): 8.62 nM
- apparent KD of MS2 coat protein (input ligand: none): 39 nM
- apparent KD of MS2 coat protein [1]: 39.2 nM
- apparent KD of MS2 coat protein [2]: 76.9 nM
- apparent KD of MS2 coat protein [3]: 28.3 nM

Sequence: AAACAUGAGGAUCACCCAUGUAUGUUAUUACGAGGACCGGUACGGCCGCCACUCGAUAGAGUAGAAGUAAAUUGUAAUUCAUGUU [JR_ExcTryptoA_Sub017]
- apparent KD of MS2 coat protein (input ligand: arginine 13.2 mM): 19.3 nM
- apparent KD of MS2 coat protein [1]: 18.8 nM
- apparent KD of MS2 coat protein [2]: 16.9 nM

Sequence: AAACAUGAGGAUCACCCAUGUGGAACCGAAGGAGCGGCGCACAUGCCAGGUAGGUCGCGGGACAUGAGGACAUGAGGAUCACCCA [Same State Arginine A 3]
- apparent KD of MS2 coat protein (input ligand: arginine 13.2 mM): 45.1 nM
- apparent KD of MS2 coat protein (input ligand: none): 135 nM
- apparent KD of MS2 coat protein [1]: 207 nM
- apparent KD of MS2 coat protein [2]: 184 nM
- apparent KD of MS2 coat protein [3]: 134 nM

Sequence: AAACGCCACGGAAGGAGCGACAUGAGGAUCACCCAUGUAGUUUUGGCGGAUGCACCCUCCUGUCAGGUAGGUCGCCGUGCGAUAA [XArg-B26]
- apparent KD of MS2 coat protein (input ligand: arginine 13.2 mM): 32.6 nM
- apparent KD of MS2 coat protein (input ligand: none): 35.8 nM
- apparent KD of MS2 coat protein [1]: 71.8 nM
- apparent KD of MS2 coat protein [2]: 68.5 nM
- apparent KD of MS2 coat protein [3]: 33.4 nM

Sequence: AAACGUUGCUGCGAUACCAGACAUGAGGAUCACCCAUGUACCAAGGUAAGAAAAUAACAUGUCCCUUGGCAGCGCAGCAACGAAA [MAT - Exclusion Theophlline B - Mod of Eli - D3]
- apparent KD of MS2 coat protein (input ligand: arginine 13.2 mM): 17.5 nM
- apparent KD of MS2 coat protein [1]: 43.6 nM
- apparent KD of MS2 coat protein [3]: 15.6 nM

Sequence: AAAGAUCGGAAACGAUCGGCGGCUUGGGCGCGAGGACCGGUACGGCCGCCACUCGGGAAACAUGAGGAUCACCCAUGUUGCUAGC [ETA NP+V+V2 #15]
- apparent KD of MS2 coat protein (input ligand: arginine 13.2 mM): 12.3 nM
- apparent KD of MS2 coat protein [1]: 18.4 nM
- apparent KD of MS2 coat protein [2]: 16.8 nM

Sequence: AAAUAAAUCACAUGAGGAUCACCCAUGGAUACCAGGCCUGGAAACAGCCCUUGGCAGCCACAUGAGGAUCACCCAUGUGCUAAUA [MAT - Exclusion Theophlline A - Mod of Eli - D1]
- apparent KD of MS2 coat protein (input ligand: arginine 13.2 mM): 89.8 nM
- apparent KD of MS2 coat protein [1]: 194 nM
- apparent KD of MS2 coat protein [3]: 152 nM

Sequence: AACACAUGAGGAUCACCCAUGUCCAUGUACCGAGGACCGGUACGGCCGCCACUCGACAUGAGGAUCACCCAUGUUCCAUGUUGUC [Same State Tryptophan A 3]
- apparent KD of MS2 coat protein (input ligand: arginine 13.2 mM): 76 nM
- apparent KD of MS2 coat protein [1]: 131 nM
- apparent KD of MS2 coat protein [2]: 146 nM

Sequence: AACAUGAGGACGGAUACCAGUCACAUGAGGAUCACCCAUGUACAUGAGGAUCACCCAUGUGGCCCUUGGCAGCCGCAUGUGAUCA [Exclusion Theophylline B 4]
- apparent KD of MS2 coat protein (input ligand: arginine 13.2 mM): 124 nM
- apparent KD of MS2 coat protein [1]: 308 nM
- apparent KD of MS2 coat protein [3]: 412 nM

Sequence: AACAUGAGGAUCACCCAUGUGUCCUCGAAACGAGGACCGGUACGGCCGCCACUCGAAUAAGGUGUUGACGAAAAGUCAGCACCAA [Mat - Exclusion - Trytophan A - D17]
- apparent KD of MS2 coat protein (input ligand: arginine 13.2 mM): 111 nM
- apparent KD of MS2 coat protein [1]: 314 nM
- apparent KD of MS2 coat protein [2]: 338 nM

Reference: the supplement of paper PMC9170038
